Test results from US20110245145.

Tested on: HA-βarrestin2 1-185

Substance: endogenous Src of Hep3B hepatocytes
- insulin-stimulated phosphorylations of Akt, GSK3P, and Foxo1: markedly reduced in the presence of βarrestin2 1-185
